This is an account of results in patent US20150044666A1.

As usually defined, the pKd is the negative decadic logarithm of the Kd, by convention in mol/L. As a reminder, the koff is the rate constant with which the complex falls apart. In general, kon refers to the second-order rate constant of association.

pKd: −log10 of the molar value.

The target of test [1] is Recombinant HIV-1 p24 (HIV-1) (UniProt P04591). Put plainly: forward two-site immuno-PCR, 10 pM reporter MAb-DNA, capture MAb 739P on particles; p24 at 0.01 pg/mL.
The target is the same in test [2]. Put plainly: forward two-site immuno-PCR; p24 0.1 pg/mL; reporter MAb-DNA 5 pM.
The target is the same in test [3]. As to the kind of experiment: method not stated; rate and equilibrium constants listed for commercially available anti-HIV p24 antibodies.
The target is the same in test [4]. Put plainly: forward two-site immuno-PCR, 10 pM reporter MAb-DNA, capture MAb 739P on particles; p24 at 10 pg/mL.
The target is the same in test [5]. As to the kind of experiment: forward two-site immuno-PCR; p24 0.1 pg/mL; reporter MAb-DNA 10 pM.
Test [6] shares this target. Put plainly: forward two-site immuno-PCR; p24 0.1 pg/mL; reporter MAb-DNA 15 pM.
Test [7] has the same target. As to the kind of experiment: forward two-site immuno-PCR, 10 pM reporter MAb-DNA, capture MAb 739P on particles; p24 at 1 pg/mL.
Test [8] has the same target. As to the kind of experiment: forward two-site immuno-PCR; p24 0.1 pg/mL; reporter MAb-DNA 2.5 pM.
For test [9] the target is unchanged. Put plainly: forward two-site immuno-PCR, 10 pM reporter MAb-DNA, capture MAb 739P on particles; p24 at 0.1 pg/mL.
The target is the same in test [10]. As to the kind of experiment: forward two-site immuno-PCR; p24 0.1 pg/mL; reporter MAb-DNA 20 pM.
Test [11] has the same target. As to the kind of experiment: forward two-site immuno-PCR; p24 0.1 pg/mL; reporter MAb-DNA 50 pM.

As for “NIH AIDS Research & Reference Reagent Program HIV-1 183-H12-5C (antibody)”, the Threshold Cycle (Ct) was 26.6 cycles in test [1], 17.7 cycles in test [4], 20.6 cycles in test [7] and 23.8 cycles in [9]. The Average ΔThreshold Cycle (ΔCp) over blank in test [2] amounted to 2.6 cycles; in test [5] it was 2.2 cycles; in test [6], 2 cycles; in test [8], 0.3 cycles; in test [10], 1.5 cycles; in test [11], 0.9 cycles. In addition, in test [3], the pKd is 8.41. Further, the koff in test [3] was 5.9e-05 s⁻¹. Moreover, the kon in test [3] turned out to be 15000 M⁻¹ s⁻¹.
